Tests used:
[1] = tested on: MBP-ERSRC WT (Homo sapiens); assay: fluorescence anisotropy; conditions: unmodified in vitro transcript; FA: 5 nM labeled tRNA, 25 mM Tris-HCl pH 8, 50 mM NaCl, 1 mM MgCl2, room temperature, 30 min
[2] = tested on: MBP-ERS2.5W WT (Homo sapiens); assay: fluorescence anisotropy; conditions: unmodified in vitro transcript; FA: 5 nM labeled tRNA, 25 mM Tris-HCl pH 8, 50 mM NaCl, 1 mM MgCl2, room temperature, 30 min

tRNAGlu(TTC)
Kd [1]: 331 nM
Kd [2]: 83.7 nM

— paper PMC8511952
